The values that follow come from PMC9399999 (Nature Communications, 2022).

The test has as its target prototypic SARS-CoV-2 RBD (residues 319-541) (SARS-CoV-2, prototype (GISAID …, UniProt P0DTC2)). As to the kind of experiment: SPR. As to conditions: both partners purified.

B1: S304 antibody (IgG1) (antibody, V domains shown)
VH: EVQLVESGGGLVQPGGSLRLSCAASGFTFSSYDMHWVRQTTGKGLEWVSTIGTAGDTYYPDSVKGRFTISREDAKNSLYLQMNSLRAGDTAVYYCARGDSSGYYYYFDYWGQGTLLTVSS
VL: DIQMTQSPSSLSAAVGDRVTITCRASQSIGSYLNWYQQKPGKAPKLLIYAASSLQSGVPSRFSGSGSGTDFTLTISSLQPEDFAIYYCQQSYVSPTYTFGPGTKVDIK
notes: IgG1
In turn, B1 displayed a Kd of 5.61 nM.
